Measured values as given in paper PMC8406831, “High-resolution structure of the amino acid transporter AdiC reveals insights into the role of water molecules and networks in oligomerization and substrate binding” (BMC Biology, 2021).
Residue numbers refer to the chain shown, from its start. Names may count otherwise.

Molecular target: the molecule itself
Experiment: SEC; Superdex 200 5/150 GL, 20 mM Tris-HCl, pH 8.0, 150 mM NaCl, 0.04% (w/v) DDM; elution volumes of the mutants compared with the wild type

B1: AdiC-Q88E (natural protein, E. coli)
chain: MSSDADAHKVGLIPVTLMVSGNIMGSGVFLLPANLASTGGIAIYGWLVTIIGALGLSMVYAKMSFLDPSPGGSYAYARRCFGPFLGYETNVLYWLACWIGNIAMVVIGVGYLSYFFPILKDPLVLTITCVVVLWIFVLLNIVGPKMITRVQAVATVLALIPIVGIAVFGWFWFRGETYMAAWNVSGLGTFGAIQSTLNVTLWSFIGVESASVAAGVVKNPKRNVPIATIGGVLIAAVCYVLSTTAIMGMIPNAALRVSASPFGDAARMALGDTAGAIVSFCAAAGCLGSLGGWTLLAGQTAKAAADDGLFPPIFARVNKAGTPVAGLIIVGILMTIFQLSSISPNATKEFGLVSSVSVIFTLVPYLYTCAALLLLGHGHFGKARPAYLAVTTIAFLYCIWAVVGSGAKEVMWSFVTLMVITAMYALNYNRLHKNPYPLDAPISKD
notes: AdiC, L-arginine/agmatine transporter of E. coli (gene from XL1-Blue genomic DNA, vector pZUDF21) with the point mutation Q88E; Residues of the HRV3C site may remain at the C-terminus after cleavage; source: E. coli BL21(DE3) pLysS, purified (Ni-NTA in DDM, on-column HRV3C cleavage); not shown: deca His-tag, C-terminal, cleaved
- binding result: binds

B2: AdiC-Y367F (natural protein, E. coli)
chain: B1 chain with E88Q, Y367F
notes: AdiC, L-arginine/agmatine transporter of E. coli (gene from XL1-Blue genomic DNA, vector pZUDF21) with the point mutation Y367F; Residues of the HRV3C site may remain at the C-terminus after cleavage; source: E. coli BL21(DE3) pLysS, purified (Ni-NTA in DDM, on-column HRV3C cleavage); not shown: deca His-tag, C-terminal, cleaved
- binding result: binds

B3: AdiC-T421V (natural protein, E. coli)
chain: B1 chain with E88Q, T421V
notes: AdiC, L-arginine/agmatine transporter of E. coli (gene from XL1-Blue genomic DNA, vector pZUDF21) with the point mutation T421V; Residues of the HRV3C site may remain at the C-terminus after cleavage; source: E. coli BL21(DE3) pLysS, purified (Ni-NTA in DDM, on-column HRV3C cleavage); not shown: deca His-tag, C-terminal, cleaved
- binding result: binds
